Experimental data reported in article PMC6555816, “Tau local structure shields an amyloid-forming motif and controls aggregation propensity” (Nature Communications, 2019).

B1: 306VQIVYK311 hexapeptide (peptide)
peptide: Ac-VQIVYK-NH2
notes: also called amyloid motif; source: synthetic peptide (Genscript)

Biological target: the molecule itself
Assay: ThT fluorescence aggregation assay; spontaneous self-assembly of disaggregated synthetic peptides, 200 µM, PBS, 25 µM ThT, room temperature, no inducer; the R2R3 peptides of Fig. 4 also looked at by TEM

Binding result, binds:
Ac-DNIKHIPGGGSVQIVYK-NH2 (peptide, UniProt P10636-8 295-311, looked up, source: synthetic peptide (Genscript)) [R2R3-V300I peptide fragment]
Ac-DNIKHVLGGGSVQIVYK-NH2 (peptide, UniProt P10636-8 295-311, looked up, source: synthetic peptide (Genscript)) [R2R3-P301L peptide fragment]
Ac-DNIKHVPGGGNVQIVYK-NH2 (peptide, UniProt P10636-8 295-311, looked up, source: synthetic peptide (Genscript)) [R2R3-S305N peptide fragment]
Ac-DNIKHVSGGGSVQIVYK-NH2 (peptide, UniProt P10636-8 295-311, looked up, source: synthetic peptide (Genscript)) [R2R3-P301S peptide fragment]
Ac-DNIKHVPGVGSVQIVYK-NH2 (peptide, UniProt P10636-8 295-311, looked up, source: synthetic peptide (Genscript)) [R2R3-G303V peptide fragment]
B1
Ac-DIKHVPGGGSVQIVYK-NH2 (peptide, UniProt P10636-8 295-311, looked up, source: synthetic peptide (Genscript)) [R2R3-N296Δ peptide fragment]
